Patent publication US6570069B1, “Nucleic acids encoding plant inhibitors of apoptosis and transgenic cells and plants expressing them” (priority 2000, dated 2003)

T1: caspase-3 (Homo sapiens, UniProt P42574)
T1 construct: His6 (C); made in house
T1 sequence (P42574 29-175 limits assumed): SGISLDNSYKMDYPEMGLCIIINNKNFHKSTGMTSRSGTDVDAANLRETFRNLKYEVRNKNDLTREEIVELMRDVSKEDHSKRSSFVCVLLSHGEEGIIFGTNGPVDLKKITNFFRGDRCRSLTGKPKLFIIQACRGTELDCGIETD
T1 sequence (P42574 176-277 limits assumed): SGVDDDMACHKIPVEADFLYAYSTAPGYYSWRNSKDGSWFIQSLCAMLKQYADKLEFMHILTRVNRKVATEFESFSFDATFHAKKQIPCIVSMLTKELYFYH

B1: SfIAP: cellular IAP cloned from Spodoptera frugiperda, protein of 377 amino acids (SEQ ID NO:3); GST-fusion when recombinant (protein, listed as Spodoptera frugiperda)
chain: MWSCSLPCWNTKKSGLQMDITKVASNGSSSTLTLFKSGSLEAKIRPLAPLMLPTPSYDSNAGSPSLSPSTPCSSSSFSIDKTDNHDTFGFSADTVDMRKEDERMKTFEKWPVSFLSGEQLARNGFYYLGRRDEARCAFCKVEIMRWVEGDDPAKDHQRWAPQCPFVRKLNGTAAADTGSSGQDECGARAAPSGTSPPRMAGPVHPRYASEAARLRSFKDWPRCMRQKPEELAEAGFFYTGQGDKTKCFYCDGGLKDWENHDVPWEQHARWFDRCAYVQLVKGREYVQKVISEACEVSASEAERDVAPARTAEPSPPAEAPENSVDDSKLCKICYAEERNVCFVPCGHVVACAKCALAADKCPMCRRTFQNAVRLYFS
modifications: GST fusion when recombinant; fall armyworm inhibitor of apoptosis protein (SfIAP)
B2: CpIAP: baculoviral (CpGV) inhibitor of apoptosis protein; complete ORF expressed myc-tagged or as GST-fusion (protein)
chain: MSDLRLEEVRLNTFEKWPVSFLSPETMAKNGFYYLGRSDEVRCAFCKVEIMRWKEGEDPAADHKKWAPQCPFVKGIDVCGSIVTTNNIQNTTTHDTIIGPAHPKYAHEAARVKSFHNWPRCMKQRPEQMADAGFFYTGYGDNTKCFYCDGGLKDWEPEDVPWEQHVRWFDRCAYVQLVKGRDYVQKVITEACVLPGENTTVSTAAPVSEPIPETKIEKEPQVEDSKLCKICYVEECIVCFVPCGHVVACAKCALSVDKCPMCRKIVTSVLKVYFS
modifications: left off: a dimerising Fc or GST
notes: complete ORF expressed myc-tagged or as GST-fusion

Assays:
[1] = tested on: Fas-induced apoptosis in HEK293 cells; assay: Fas-induced apoptosis in HEK293 cells (co-transfection, DAPI nuclear morphology); format: cell-based, human; conditions: IAP plasmid co-transfected with Fas into HEK293 cells; % apoptosis 24-36 hours later
Description: (§1) HEK293 and 293T cells were maintained in DMEM (Irvine Scientific) supplemented with 10% fetal bovine serum, 1 mM L-glutamine and antibiotics. 293 cells (10^6) were co-transfected using Superfect with 0.1 μg Green Fluoresence Protein (GFP) marker plasmid pEGFP (Clontech), 0.25 ug of either pcDNA3-Bax or pcDNA3-Fas, and 1.5 μg of either pcDNA3myc-SfIAP or pcDNA3myc-CpIAP. Alternatively, cells were co-transfected with 0.35 μg pcDNA3-caspase-9-Flag and 2.1 μg of either SfIAP or CpIAP. […] In some cases, lysates were prepared from transfected cells, normalized for total protein content, and analyzed by SDS-PAGE/immunoblotting as described (Deveraux, Q., et al., (1997) supra; Deveraux, Q. L., et al. (1998) supra; Roy, N. et al. (1997) supra; Takahashi, R., et al., (1998), supra.).
(§2) Baculoviral IAPs have been reported to protect mammalian cells from some apoptotic stimuli (Hawkins, C. J. et al., (1996) Proc. Natl. Acad. Sci. USA 93, 13786-13790; Hawkins, C. et al., (1998) Cell Death and Differentiation 5, 569-576; Uren, A. G. et al., (1996) Proc. Natl. Acad. Sci. USA 93, 4974-4978). Tests were performed to determine whether SfIAP is also capable of functioning as an apoptosis suppressor in a mammalian cell context. […]
(§3) Plasmids encoding various IAPs were co-transfected with Bax or Fas into 293 cells and % apoptosis was determined 24-36 hours later.

caspase-3 = molecular target: T1, caspase-3; assay: Binding to recombinant purified caspase-3; design: species or system mammalian
Description: pGEX4T-1-SfIAP and pGEX4T-1 -CpIAP plasmids were introduced into E. coli strain BL21 (DE3) containing the plasmid pT-Trx. GST fusion proteins were obtained by induction with 0.05 mM IPTG at 25° C. for 8 hours, then purified using glutathione-Sepharose, essentially as described (Deveraux, Q., Welsh, K. & Reed, J. Methods of Enzymology in press). Caspases-3, and -7, containing C-terminal His6-tags, and caspase-8 containing an N-terminal His6-tag were purified as described previously (Stennicke, H. R. & Salvesen, G. S. (I1997) J. Biol. Chem. 272, 25719-25723; Stennicke, H., et al., (1998) J. Biol. Chem. 273, 27084-27090; Stennicke, H., et al., (1999) J. Biol. Chem. 274, 8359-8362). Caspase-9 lacking the CARD domain (ΔCARD-caspase-9) was constructed by truncating the cDNA and introducing a start codon substituting Val139. The resulting cDNA was subcloned into pET-23b and expressed in BL21 (DE3), yielding fully processed enzyme when cells were induced using 0.2 mM IPTG at OD600=0.6 for 4 hrs (Stennicke, H., Deveraux, Q., Humike, E., Reed, J., Dixit, V. & Salvesen, G. (1999) J. Biol. Chem. 274, 8359-8362). […] Concentrations of purified enzymes were determined from absorbance at 280 nm based on the molar absorption coefficients: caspase-3 (A280=26,000M−1 cm−1), caspase-7 (A280=24,500 M−1 cm−1), caspase-9 (A280=30,010M−1 cm−1). […]

[2] = tested on: Bax-induced apoptosis in HEK293 cells; assay: Bax-induced apoptosis in HEK293 cells (co-transfection, DAPI nuclear morphology); format: cell-based, human; conditions: IAP plasmid co-transfected with Bax into 293 cells; % apoptosis 24-36 hours later
Description: as §1, §2, §3

| Molecule | suppression of Fas-induced apoptosis [1] | binding to caspase-3 (caspase-3) | suppression of Bax-induced apoptosis [2] |
| --- | --- | --- | --- |
| B1 | ineffective at suppressing Fas-induced apoptosis | neither bound | inhibited Bax-induced apoptosis |
| B2 | ineffective at suppressing Fas-induced apoptosis | neither bound | inhibited Bax-induced apoptosis |
